B1: Interleukin-27 subunit beta (Homo sapiens), Q14213 (parent)
chain: MTPQLLLALVLWASCPPCSGRKGPPAALTLPRVQCRASRYPIAVDCSWTLPPAPNSTSPVSFIATYRLGMAARGHSWPCLQQTPTSTSCTITDVQLFSMAPYVLNVTAVHPWGSSSSFVPFITEHIIKPDPPEGVRLSPLAERQLQVQWEPPGSWPFPEIFSLKYWIRYKRQGAARFHRVGPIEATSFILRAVRPRARYYVQVAAQDLTDYGELSDWSLPATATMSLGK
partner: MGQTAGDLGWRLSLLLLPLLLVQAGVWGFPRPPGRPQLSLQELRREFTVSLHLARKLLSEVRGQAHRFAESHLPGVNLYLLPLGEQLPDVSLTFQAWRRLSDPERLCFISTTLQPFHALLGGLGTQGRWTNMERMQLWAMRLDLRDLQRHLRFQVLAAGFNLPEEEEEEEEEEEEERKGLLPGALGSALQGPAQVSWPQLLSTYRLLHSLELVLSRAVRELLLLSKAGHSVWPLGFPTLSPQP
B2: Interleukin-27 subunit alpha (Homo sapiens), Q8NEV9 (parent)
chain: B1 partner
partner: B1 chain

Variants of: B1
Details: with il27a_human IL27, Q8NEV9

Variant | effect of a mutation on the interaction
F97A | decreasing interaction
E159A | decreasing interaction
D210A | disrupting interaction

Variants of: B2
Details: with il27b_human EBI3, Q14213

Variant | effect of a mutation on the interaction
W197A | increasing interaction
W97A | disrupting interaction
